Experimental findings from paper PMC10180154 are described below.

Data set [1] deals with T1, LRP6 (recombinant human LRP-6, Fc chimera) (Homo sapiens) (UniProt O75581).
T1 sequence: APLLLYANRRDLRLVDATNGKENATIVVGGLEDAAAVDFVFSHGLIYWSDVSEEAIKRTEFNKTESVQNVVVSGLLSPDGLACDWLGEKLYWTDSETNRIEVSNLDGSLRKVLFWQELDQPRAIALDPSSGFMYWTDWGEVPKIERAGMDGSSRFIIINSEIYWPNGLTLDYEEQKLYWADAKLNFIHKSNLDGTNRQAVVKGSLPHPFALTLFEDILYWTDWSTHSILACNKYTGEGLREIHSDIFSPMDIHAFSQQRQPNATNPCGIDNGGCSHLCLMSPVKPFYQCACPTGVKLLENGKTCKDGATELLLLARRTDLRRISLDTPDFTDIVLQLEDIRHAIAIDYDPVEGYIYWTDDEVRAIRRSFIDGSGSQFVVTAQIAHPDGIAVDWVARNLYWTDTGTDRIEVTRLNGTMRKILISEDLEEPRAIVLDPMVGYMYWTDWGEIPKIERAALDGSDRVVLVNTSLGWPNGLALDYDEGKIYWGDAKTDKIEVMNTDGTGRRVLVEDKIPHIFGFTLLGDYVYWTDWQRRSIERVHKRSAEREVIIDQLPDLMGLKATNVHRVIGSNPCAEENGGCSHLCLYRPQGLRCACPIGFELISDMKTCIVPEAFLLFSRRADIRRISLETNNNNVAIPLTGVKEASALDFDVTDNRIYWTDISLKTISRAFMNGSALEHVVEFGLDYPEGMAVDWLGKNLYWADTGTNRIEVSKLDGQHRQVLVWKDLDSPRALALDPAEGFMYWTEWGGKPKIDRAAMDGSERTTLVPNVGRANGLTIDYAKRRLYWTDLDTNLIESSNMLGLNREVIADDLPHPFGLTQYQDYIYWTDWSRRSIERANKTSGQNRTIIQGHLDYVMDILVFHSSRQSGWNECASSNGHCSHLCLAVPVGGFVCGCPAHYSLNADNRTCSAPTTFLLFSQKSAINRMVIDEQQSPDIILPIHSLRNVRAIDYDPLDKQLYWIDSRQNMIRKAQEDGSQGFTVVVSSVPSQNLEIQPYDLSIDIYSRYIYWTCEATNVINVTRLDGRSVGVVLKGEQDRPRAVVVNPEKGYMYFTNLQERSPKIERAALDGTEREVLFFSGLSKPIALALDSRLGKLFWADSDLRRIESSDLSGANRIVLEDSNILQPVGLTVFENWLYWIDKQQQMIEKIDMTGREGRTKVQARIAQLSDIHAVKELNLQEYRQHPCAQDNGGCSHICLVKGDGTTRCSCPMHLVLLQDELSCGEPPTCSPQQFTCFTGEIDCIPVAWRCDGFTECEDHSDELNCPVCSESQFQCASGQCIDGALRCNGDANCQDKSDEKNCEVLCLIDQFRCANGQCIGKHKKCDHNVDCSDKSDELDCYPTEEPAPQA
The experiment in a line: CE-LIF (NECEEM). The conditions noted are these: CE-LIF: incubation pH 8.0, 0.155% glutathione, 0.395% Tris-HCl; running buffer 50 mM borate pH 7.6, 20 kV, 25 C (CE-SELEX conditions). SPR: PBST pH 7.4, 0.05% ….

For data set [2], the target named is T1, LRP6 (recombinant human LRP-6, Fc chimera) (Homo sapiens). Briefly: SPR. The conditions noted are these: CE-LIF: incubation pH 8.0, 0.155% glutathione, 0.395% Tris-HCl; running buffer 50 mM borate pH 7.6, 20 kV, 25 C (CE-SELEX conditions). SPR: PBST pH 7.4, 0.05% ….

By Kd is commonly meant the free concentration of one partner at which half of the binding sites on the other are occupied at equilibrium, for simple one-to-one binding. “AGCAGCACAGAGGTCAGATGCCGCAGGCAGCTGCCATTAGTCTCTATCCGTGACGGTATGCCTATGCGTGCTACCGTGAA [AptLRP6-A1]”: the Kd in data set [1] was 118 nM; in data set [2], 13.4 nM.

Turning to “AGCAGCACAGAGGTCAGATGCGACTTGCCTATCGGCATGACACAATCTTTTGGAGCGTAACCTATGCGTGCTACCGTGAA [AptLRP6-A4]”, the Kd in data set [1] was determined as 661 nM; in data set [2], 51 nM.

Consider “AGCAGCACAGAGGTCAGATGGCAGCTAAGCAGGCGGCTCACAAAACCATTCGCATGCGGCCCTATGCGTGCTACCGTGAA [AptLRP6-A3]”, for which the Kd in data set [1] was found to be 105 nM; in data set [2] it was 25.7 nM.

As for “AGCAGCACAGAGGTCAGATGGCCACATTAGTCTCACCACTACCTGCGTACCTACCGCCGCCCTATGCGTGCTACCGTGAA [AptLRP6-A2]”, the Kd in data set [1] came to 1280 nM; in data set [2], 173 nM.
